These results are taken from patent US20190233493A1 (Sanofi, published 2019).

Sequences and labels used below:
B1: peptide of SEQ ID NO: 36 (peptide)
peptide: Ac-LEGREKVR[Aib]K(Ac)I[Aib][Aib]EG[Nle]STWS[Aib]RKK(Ac)[PEG12]K([γGlu-γGlu-γGlu-Stearoyl])-NH2
SMILES: CCCCCCCCCCCCCCCCCC(=O)N[C@@H](CCC(=O)N[C@@H](CCC(=O)N[C@@H](CCC(=O)NCCCC[C@H](NC(=O)CCOCCOCCOCCOCCOCCOCCOCCOCCOCCOCCOCCOCCNC(=O)[C@H](CCCCNC(C)=O)NC(=O)[C@H](CCCCN)NC(=O)[C@H](CCCNC(=N)N)NC(=O)C(C)(C)NC(=O)[C@H](CO)NC(=O)[C@H](Cc1c[nH]c2ccccc12)NC(=O)[C@@H](NC(=O)[C@H](CO)NC(=O)[C@H](CCCC)NC(=O)CNC(=O)[C@H](CCC(=O)O)NC(=O)C(C)(C)NC(=O)C(C)(C)NC(=O)[C@@H](NC(=O)[C@H](CCCCNC(C)=O)NC(=O)C(C)(C)NC(=O)[C@H](CCCNC(=N)N)NC(=O)[C@@H](NC(=O)[C@H](CCCCN)NC(=O)[C@H](CCC(=O)O)NC(=O)[C@H](CCCNC(=N)N)NC(=O)CNC(=O)[C@H](CCC(=O)O)NC(=O)[C@H](CC(C)C)NC(C)=O)C(C)C)[C@@H](C)CC)[C@@H](C)O)C(N)=O)C(=O)O)C(=O)O)C(=O)O
B2: peptide of SEQ ID NO: 38 (peptide)
peptide: Ac-LEGREKVRAK(Ac)I[Aib][Aib]EG[Nle]STWS[Aib]RK[PEG12]K([γGlu-γGlu-γGlu-Palmitoyl])-NH2
SMILES: CCCCCCCCCCCCCCCC(=O)N[C@@H](CCC(=O)N[C@@H](CCC(=O)N[C@@H](CCC(=O)NCCCC[C@H](NC(=O)CCOCCOCCOCCOCCOCCOCCOCCOCCOCCOCCOCCOCCNC(=O)[C@H](CCCCN)NC(=O)[C@H](CCCNC(=N)N)NC(=O)C(C)(C)NC(=O)[C@H](CO)NC(=O)[C@H](Cc1c[nH]c2ccccc12)NC(=O)[C@@H](NC(=O)[C@H](CO)NC(=O)[C@H](CCCC)NC(=O)CNC(=O)[C@H](CCC(=O)O)NC(=O)C(C)(C)NC(=O)C(C)(C)NC(=O)[C@@H](NC(=O)[C@H](CCCCNC(C)=O)NC(=O)[C@H](C)NC(=O)[C@H](CCCNC(=N)N)NC(=O)[C@@H](NC(=O)[C@H](CCCCN)NC(=O)[C@H](CCC(=O)O)NC(=O)[C@H](CCCNC(=N)N)NC(=O)CNC(=O)[C@H](CCC(=O)O)NC(=O)[C@H](CC(C)C)NC(C)=O)C(C)C)[C@@H](C)CC)[C@@H](C)O)C(N)=O)C(=O)O)C(=O)O)C(=O)O
B3: peptide of SEQ ID NO: 37 (peptide)
peptide: Ac-LEGREKVR[Aib]K(Ac)I[Aib][Aib]EG[Nle]ST[1Nal]S[Aib]RKK(Ac)[PEG12]K([γGlu-γGlu-γGlu-Stearoyl])-NH2
SMILES: CCCCCCCCCCCCCCCCCC(=O)N[C@@H](CCC(=O)N[C@@H](CCC(=O)N[C@@H](CCC(=O)NCCCC[C@H](NC(=O)CCOCCOCCOCCOCCOCCOCCOCCOCCOCCOCCOCCOCCNC(=O)[C@H](CCCCNC(C)=O)NC(=O)[C@H](CCCCN)NC(=O)[C@H](CCCNC(=N)N)NC(=O)C(C)(C)NC(=O)[C@H](CO)NC(=O)[C@H](Cc1cccc2ccccc12)NC(=O)[C@@H](NC(=O)[C@H](CO)NC(=O)[C@H](CCCC)NC(=O)CNC(=O)[C@H](CCC(=O)O)NC(=O)C(C)(C)NC(=O)C(C)(C)NC(=O)[C@@H](NC(=O)[C@H](CCCCNC(C)=O)NC(=O)C(C)(C)NC(=O)[C@H](CCCNC(=N)N)NC(=O)[C@@H](NC(=O)[C@H](CCCCN)NC(=O)[C@H](CCC(=O)O)NC(=O)[C@H](CCCNC(=N)N)NC(=O)CNC(=O)[C@H](CCC(=O)O)NC(=O)[C@H](CC(C)C)NC(C)=O)C(C)C)[C@@H](C)CC)[C@@H](C)O)C(N)=O)C(=O)O)C(=O)O)C(=O)O
B4: peptide of SEQ ID NO: 39 (peptide)
peptide: Ac-LEGREKVRAK(Ac)I[Aib][Aib]EG[Nle]STWXKRKK(Ac)[PEG12]K([γGlu-γGlu-γGlu-γGlu-Stearoyl])-NH2
modifications: not fully specified (some residues); printed as Ac-L-E-G-R-E-K-V-R-A-K(Ac)-I-Aib-Aib-E-G-Nle-S-T-W-Mse-K-R-K-K(Ac)-PEG12-K(gE-gE-gE-gE-Stea)-NH2
B5: peptide of SEQ ID NO: 40 (peptide)
peptide: Ac-LEGREKVRAK(Ac)I[Aib][Aib]EG[Nle]STWXXRKK(Ac)[PEG12]K([γGlu-γGlu-γGlu-γGlu-Stearoyl])-NH2
modifications: not fully specified (some residues); printed as Ac-L-E-G-R-E-K-V-R-A-K(Ac)-I-Aib-Aib-E-G-Nle-S-T-W-Mse-Mly-R-K-K(Ac)-PEG12-K(gE-gE-gE-gE-Stea)-NH2
B6: peptide of SEQ ID NO: 4 (peptide)
peptide: Ac-ELEGREKVRAAI[Aib][Aib]EG[Nle]STWS[Aib]RKK([γGlu-γGlu-Palmitoyl])-NH2
SMILES: CCCCCCCCCCCCCCCC(=O)N[C@@H](CCC(=O)N[C@@H](CCC(=O)NCCCC[C@H](NC(=O)[C@H](CCCCN)NC(=O)[C@H](CCCNC(=N)N)NC(=O)C(C)(C)NC(=O)[C@H](CO)NC(=O)[C@H](Cc1c[nH]c2ccccc12)NC(=O)[C@@H](NC(=O)[C@H](CO)NC(=O)[C@H](CCCC)NC(=O)CNC(=O)[C@H](CCC(=O)O)NC(=O)C(C)(C)NC(=O)C(C)(C)NC(=O)[C@@H](NC(=O)[C@H](C)NC(=O)[C@H](C)NC(=O)[C@H](CCCNC(=N)N)NC(=O)[C@@H](NC(=O)[C@H](CCCCN)NC(=O)[C@H](CCC(=O)O)NC(=O)[C@H](CCCNC(=N)N)NC(=O)CNC(=O)[C@H](CCC(=O)O)NC(=O)[C@H](CC(C)C)NC(=O)[C@H](CCC(=O)O)NC(C)=O)C(C)C)[C@@H](C)CC)[C@@H](C)O)C(N)=O)C(=O)O)C(=O)O
B7: peptide of SEQ ID NO: 35 (peptide)
peptide: Ac-LEGREKVRAK(Ac)I[Aib][Aib]EGMSTWS[Aib]RK[PEG12]K([γGlu-γGlu-γGlu-Stearoyl])-NH2
SMILES: CCCCCCCCCCCCCCCCCC(=O)N[C@@H](CCC(=O)N[C@@H](CCC(=O)N[C@@H](CCC(=O)NCCCC[C@H](NC(=O)CCOCCOCCOCCOCCOCCOCCOCCOCCOCCOCCOCCOCCNC(=O)[C@H](CCCCN)NC(=O)[C@H](CCCNC(=N)N)NC(=O)C(C)(C)NC(=O)[C@H](CO)NC(=O)[C@H](Cc1c[nH]c2ccccc12)NC(=O)[C@@H](NC(=O)[C@H](CO)NC(=O)[C@H](CCSC)NC(=O)CNC(=O)[C@H](CCC(=O)O)NC(=O)C(C)(C)NC(=O)C(C)(C)NC(=O)[C@@H](NC(=O)[C@H](CCCCNC(C)=O)NC(=O)[C@H](C)NC(=O)[C@H](CCCNC(=N)N)NC(=O)[C@@H](NC(=O)[C@H](CCCCN)NC(=O)[C@H](CCC(=O)O)NC(=O)[C@H](CCCNC(=N)N)NC(=O)CNC(=O)[C@H](CCC(=O)O)NC(=O)[C@H](CC(C)C)NC(C)=O)C(C)C)[C@@H](C)CC)[C@@H](C)O)C(N)=O)C(=O)O)C(=O)O)C(=O)O

*1 amine or outer side, *2 acyl side, *3 side chain or, on linkers, in order; H or OH if unused. Side-chain parts run from the residue outwards. [ ]: non-standard residue; d: D form. The star is where a group is joined. PEG12 = NCCOCCOCCOCCOCCOCCOCCOCCOCCOCCOCCOCCOCCC(=O)O; γGlu = O=C(O)[C@H](CCC(=O)[*:2])N[*:1]; 1Nal = N[C@@H](Cc1cccc2ccccc12)C(=O)O; Stearoyl = CCCCCCCCCCCCCCCCCC(=O)*; Palmitoyl = CCCCCCCCCCCCCCCC(=O)*; Nle = CCCC[C@H](N)C(=O)O; Aib = CC(C)(N)C(=O)O

In this experiment the target is T1, RXFP1 receptor (UniProt Q9HBX9 1-757, limits assumed).
T1 sequence (looked up): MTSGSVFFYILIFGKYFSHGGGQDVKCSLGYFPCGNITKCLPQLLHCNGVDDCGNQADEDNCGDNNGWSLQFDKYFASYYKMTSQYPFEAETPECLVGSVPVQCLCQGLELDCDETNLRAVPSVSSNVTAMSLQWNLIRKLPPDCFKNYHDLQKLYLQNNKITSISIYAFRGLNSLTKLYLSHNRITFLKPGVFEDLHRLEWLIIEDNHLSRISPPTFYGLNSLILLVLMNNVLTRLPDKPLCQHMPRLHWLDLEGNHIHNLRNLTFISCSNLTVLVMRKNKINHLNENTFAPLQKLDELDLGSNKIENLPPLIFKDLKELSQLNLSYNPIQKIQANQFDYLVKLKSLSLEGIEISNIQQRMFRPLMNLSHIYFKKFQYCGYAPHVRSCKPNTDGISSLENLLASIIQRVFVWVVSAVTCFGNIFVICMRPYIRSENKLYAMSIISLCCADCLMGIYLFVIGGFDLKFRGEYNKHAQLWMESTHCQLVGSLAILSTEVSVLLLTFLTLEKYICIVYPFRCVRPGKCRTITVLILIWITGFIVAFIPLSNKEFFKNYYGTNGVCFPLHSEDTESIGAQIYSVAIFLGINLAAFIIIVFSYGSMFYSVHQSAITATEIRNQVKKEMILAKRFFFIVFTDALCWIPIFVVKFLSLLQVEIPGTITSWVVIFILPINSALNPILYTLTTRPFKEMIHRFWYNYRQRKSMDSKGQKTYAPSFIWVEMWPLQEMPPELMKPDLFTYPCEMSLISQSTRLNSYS
The experiment in a line: cell-based or functional assay.
Consider B1, for which the “EC50 (nM), OVCAR 5 cells (cAMP)” value stood at 0.89 nM and the “EMax, OVCAR 5 cells (cAMP)” value came to 84%.
The corresponding values for B2 are 0.21 nM and 89%.
B3: the “EC50 (nM), OVCAR 5 cells (cAMP)” value was determined as 2.49 nM and the “EMax, OVCAR 5 cells (cAMP)” value amounted to 83%.
The corresponding values for B4 are 0.03 nM and 91%.
Taken in the same sequence, the figures for B5 were 0.02 nM and 90%.
Taken in the same sequence, the figures for B6 were 31.7 nM and 99%.
For the molecule B7, the “EC50 (nM), OVCAR 5 cells (cAMP)” value turned out to be 1.69 nM and the “EMax, OVCAR 5 cells (cAMP)” value was 95%.
